Test results as given in the supplement of paper PMC6757056.
± gives the standard deviation of the averaged measurements.

B1: library; a variant is named by its letters at N, in order (parent)
chain: GCUGUCACCGAGAAACUGUGAAGUAUAUCUUAAACCUGGGCACUUAAAAGAUAUAUGGAGUUAGUAGUGCAACCUGCUCGGUCUGAUGAGUCCNNNNNNGGACGAAACAGC

Tests used:
cyclic di-GMP [1] = variants of: B1; experiment: FACS-Seq fitted mean relative fluorescence mCherry/BFP without ligand (log10 relative fluorescence); HEK293T; ligand: cyclic di-GMP (c-di-GMP-II aptamer); higher = higher reporter protein expression; conditions: ligand present: no
In short: (§1)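 Lentivirally transduced HEK293T libraries carried an mCherry reporter with the ribozyme switch and an EF1α-BFP marker. Transduced cells were enriched, then incubated with or without ligand for 48 h and sorted into 6 bins by mCherry/BFP. Genomic DNA from each bin was PCR-amplified, barcoded and sequenced on MiSeq. Fluorescence was the fitted normal mean of log10(mCherry/BFP) bin counts, scaled to five spiked-in control ribozymes.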

cyclic di-GMP [2] = variants of: B1; experiment: normalized RNA/DNA level without ligand (relative to sTRSVctl = 100) (log10 (% of sTRSVctl)); HEK293T; ligand: cyclic di-GMP (c-di-GMP-II aptamer); higher = less ribozyme self-cleavage, higher mRNA level; conditions: reporter: mCherry (pCS4076), ligand present: no
In short: (§2)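 Ribozyme switch library plasmids linked to reporters were introduced into HEK293T cells at 4 µg per 6-well well, with ligand, if any, added 1 h before. Total RNA was extracted with EDTA 72 h later, reverse-transcribed, amplified, barcoded and sequenced. RNA level was computed from RNA over DNA reads relative to a spiked-in non-cleaving sequence or the top sequences, then scaled and log-transformed. The top set was 25 sequences, values were ×100 and log10, and the cutoff was ≥100 DNA reads.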

cyclic di-GMP [3] = variants of: B1; experiment: FACS-Seq fitted mean relative fluorescence mCherry/BFP with ligand (log10 relative fluorescence); HEK293T; ligand: cyclic di-GMP (c-di-GMP-II aptamer); ligand concentration (+) FACS-Seq: 1 mM; higher = higher reporter protein expression; conditions: ligand present: yes
In short: as §1

cyclic di-GMP [4] = variants of: B1; experiment: normalized RNA/DNA level with ligand (relative to sTRSVctl = 100) (log10 (% of sTRSVctl)); HEK293T; ligand: cyclic di-GMP (c-di-GMP-II aptamer); ligand concentration (+) RNA-Seq: 1 mM; higher = less ribozyme self-cleavage, higher mRNA level; conditions: reporter: mCherry (pCS4076), ligand present: yes
In short: as §2

Variant	FACS-Seq fitted mean (log10) (cyclic di-GMP [1])	normalized RNA/DNA level without ligand (log10) (cyclic di-GMP [2])	FACS-Seq fitted mean (log10) (cyclic di-GMP [3])	normalized RNA/DNA level with ligand (log10) (cyclic di-GMP [4])
AGAAUC	-0.291 ± 0.023	1.63 ± 0.06	-0.0843 ± 0.044	1.78 ± 0.073
UCUUAG	0.0393 ± 0.27	1.66 ± 0.05	0.27 ± 0.049	1.8 ± 0.086
AGGAAG	-0.88 ± 0.017	1.38 ± 0.13	-0.6586 ± 0.0033	1.52 ± 0.13
AGGAAU	-0.199 ± 0.032	1.6 ± 0.042	0.123 ± 0.1	1.76 ± 0.1
AGGAAA	-0.514 ± 0.031	1.33 ± 0.15	-0.185 ± 0.026	1.52 ± 0.1
CGAUAU	-0.508 ± 0.039	1.43 ± 0.1	-0.183 ± 0.014	1.62 ± 0.11
CGAUAA	-0.6883 ± 0.0045	1.22 ± 0.1	-0.358 ± 0.058	1.41 ± 0.033
UGAACG	-0.401 ± 0.086	1.74 ± 0.033	-0.0168 ± 0.22	1.84 ± 0.11
UGAAGU	-0.24 ± 0.081	1.59 ± 0.024	0.0885 ± 0.12	1.79 ± 0.12
CGGCGC	-0.498 ± 0.2	1.8 ± 0.044	-0.494 ± 0.095	1.94 ± 0.069
UCUUGA	-0.685 ± 0.031	1.702 ± 0.0063	-0.542 ± 0.027	1.84 ± 0.14
CGCCUC	0.0848 ± 0.15	1.713 ± 0.011	0.399 ± 0.0065	1.85 ± 0.067
CGCCUU	-0.439 ± 0.021	1.5321 ± 0.00037	-0.126 ± 0.059	1.72 ± 0.13
CGCCUA	-0.608 ± 0.088	1.37 ± 0.12	-0.414 ± 0.049	1.58 ± 0.12
CGCAAA	-0.531 ± 0.011	1.26 ± 0.097	-0.262 ± 0.015	1.47 ± 0.085
CGCAAU	-0.449 ± 0.027	1.45 ± 0.087	-0.206 ± 0.045	1.61 ± 0.078
AGACGA	-0.409 ± 0.019	1.54 ± 0.063	-0.212 ± 0.013	1.73 ± 0.12
AGACGU	-1.017 ± 0.0037	1.573 ± 0.012	-0.759 ± 0.072	1.75 ± 0.13

Variant	FACS-Seq fitted mean (log10) (cyclic di-GMP [1])	normalized RNA/DNA level without ligand (log10) (cyclic di-GMP [2])	FACS-Seq fitted mean (log10) (cyclic di-GMP [3])	normalized RNA/DNA level with ligand (log10) (cyclic di-GMP [4])
AGACGC	-0.232 ± 0.099	1.65 ± 0.066	-0.0488 ± 0.032	1.81 ± 0.098
AGAAGG	-0.204 ± 0.074	1.5 ± 0.072	0.0586 ± 0.061	1.69 ± 0.064
AGAAGA	-0.764 ± 0.056	1.36 ± 0.023	-0.515 ± 0.035	1.57 ± 0.14
AGAUAA	-0.905 ± 0.032	1.44 ± 0.11	-0.444 ± 0.023	1.65 ± 0.11
AGACAA	-0.193 ± 0.061	1.47 ± 0.057	0.171 ± 0.019	1.65 ± 0.1
CGAACA	-0.456 ± 0.075	1.58 ± 0.045	-0.276 ± 0.0035	1.7 ± 0.074
UGGACU	-0.517 ± 0.12	1.69 ± 0.076	-0.118 ± 0.075	1.86 ± 0.045
UGAUGU	-0.179 ± 0.057	1.63 ± 0.052	0.187 ± 0.058	1.84 ± 0.089
UGAUGA	-0.253 ± 0.0055	1.58 ± 0.033	0.00931 ± 0.037	1.8 ± 0.099
CGGCAU	-0.564 ± 0.044	1.49 ± 0.073	-0.2893 ± 0.0014	1.64 ± 0.13
CGGCAA	-0.818 ± 0.011	1.28 ± 0.077	-0.675 ± 0.04	1.47 ± 0.097
CGGCAC	-0.036 ± 0.21	1.64 ± 0.038	0.073 ± 0.042	1.8 ± 0.12
CGGAAU	-0.644 ± 0.016	1.34 ± 0.11	-0.366 ± 0.027	1.44 ± 0.13
CGGAAA	-0.619 ± 0.028	1.16 ± 0.075	-0.44 ± 0.058	1.28 ± 0.09
CGCUAC	-0.231 ± 0.14	1.65 ± 0.021	0.045 ± 0.046	1.81 ± 0.11
CGCUAU	-1.02 ± 0.037	1.41 ± 0.12	-0.866 ± 0.11	1.64 ± 0.094
CGCUAA	-0.647 ± 0.045	1.22 ± 0.066	-0.386 ± 0.093	1.37 ± 0.059
AGACUA	-0.122 ± 0.029	1.55 ± 0.038	0.261 ± 0.022	1.74 ± 0.14
